Laboratory results from patent US10358464B2, “Specific binding sites in collagen for integrins and use thereof” (The Texas A&M University System, priority 2005, dated 2019).
Read-outs that look alike come from different tables or passages of the source. Non-standard residues stand in square brackets, D forms with d. Residues, ends and D or L forms follow the SMILES beside them. No end group written: not given here. Hyp = O=C(O)[C@@H]1C[C@@H](O)CN1

B1: Collagen III: recombinant human procollagen III in SPR; human recombinant mature type III collagen (FibroGen) in cell attachment assay (protein)
chain: QQEAVEGGCSHLGQSYADRDVWKPEPCQICVCDSGSVLCDDIICDDQELDCPNPEIPFGECCAVCPQPPTAPTRPPNGQGPQGPKGDPGPPGIPGRNGDPGIPGQPGSPGSPGPPGICESCPTGPQNYSPQYDSYDVKSGVAVGGLAGYPGPAGPPGPPGPPGTSGHPGSPGSPGYQGPPGEPGQAGPSGPPGPPGAIGPSGPAGKDGESGRPGRPGERGLPGPPGIKGPAGIPGFPGMKGHRGFDGRNGEKGETGAPGLKGENGLPGENGAPGPMGPRGAPGERGRPGLPGAAGARGNDGARGSDGQPGPPGPPGTAGFPGSPGAKGEVGPAGSPGSNGAPGQRGEPGPQGHAGAQGPPGPPGINGSPGGKGEMGPAGIPGAPGLMGARGPPGPAGANGAPGLRGGAGEPGKNGAKGEPGPRGERGEAGIPGVPGAKGEDGKDGSPGEPGANGLPGAAGERGAPGFRGPAGPNGIPGEKGPAGERGAPGPAGPRGAAGEPGRDGVPGGPGMRGMPGSPGGPGSDGKPGPPGSQGESGRPGPPGPSGPRGQPGVMGFPGPKGNDGAPGKNGERGGPGGPGPQGPPGKNGETGPQGPPGPTGPGGDKGDTGPPGPQGLQGLPGTGGPPGENGKPGEPGPKGDAGAPGAPGGKGDAGAPGERGPPGLAGAPGLRGGAGPPGPEGGKGAAGPPGPPGAAGTPGLQGMPGERGGLGSPGPKGDKGEPGGPGADGVPGKDGPRGPTGPIGPPGPAGQPGDKGEGGAPGLPGIAGPRGSPGERGETGPPGPAGFPGAPGQNGEPGGKGERGAPGEKGEGGPPGVAGPPGGSGPAGPPGPQGVKGERGSPGGPGAAGFPGARGLPGPPGSNGNPGPPGPSGSPGKDGPPGPAGNTGAPGSPGVSGPKGDAGQPGEKGSPGAQGPPGAPGPLGIAGITGARGLAGPPGMPGPRGSPGPQGVKGESGKPGANGLSGERGPPGPQGLPGLAGTAGEPGRDGNPGSDGLPGRDGSPGGKGDRGENGSPGAPGAPGHPGPPGPVGPAGKSGDRGESGPAGPAGAPGPAGSRGAPGPQGPRGDKGETGERGAAGIKGHRGFPGNPGAPGSPGPAGQQGAIGSPGPAGPRGPVGPSGPPGKDGTSGHPGPIGPPGPRGNRGERGSEGSPGHPGQPGPPGPPGAPGPCCGGVGAAAIAGIGGEKAGGFAPYYGDEPMDFKINTDEIMTSLKSVNGQIESLISPDGSRKNPARNCRDLKFCHPELKSGEYWVDPNQGCKLDAIKVFCNMETGETCISANPLNVPRKHWWTDSSAEKKHVWFGESMDGGFQFSYGNPELPEDVLDVHLAFLRLLSSRASQNITYHCKNSIAYMDQASGNVKKALKLMGSNEGEFKAEGNSKFTYTVLEDGCTKHTGEWSKTVFEYRTRKAVRLPIVDIAPYDIGGPDQEFGVDVGPVCFL
modifications: non-natural residues
notes: recombinant human procollagen III in SPR; human recombinant mature type III collagen (FibroGen) in cell attachment assay

Columns and labels:
[1] = CD temperature-dependent denaturation of triple helix; format: physicochemical; conditions: CD ellipticity at 225 nm, 20° C./hr, Boltzmann sigmoidal fit
Procedure: Circular Dichroism (CD) Spectroscopy. Synthetic collagen peptides were analyzed by CD spectroscopy, as described previously (18) with the following modifications. Briefly, peptides were dissolved in HBS to a concentration of 50 μM. CD spectra were collected on a Jasco J720 spectropolarimeter (Tokyo, Japan) from 190 to 240 nm, with bandwidth of 1 nm and integrated for 1 s at 0.2 nm intervals. Samples were measured at room temperature using cuvettes with 0.02 cm path length. For temperature-dependent denaturation analysis, […] of peptides were added to a thermostatically controlled cuvette with a 0.5 cm path length. Thermal transition profiles were recorded at 225 nm as described above with a temperature slope of 20° C./hr. To calculate the temperature melting points, the thermal transition profiles were fitted with Boltzmann sigmoidal model using the GraphPad Prism™ software (GraphPad Software Inc., San Diego, Calif.).

[2] = test system: MRC-5 cells; assay: Cell attachment assay on coated substrates; format: cell-based, human; conditions: increasing coating concentrations, 1.5×10^4 cells per well, 45 min, room temperature
Procedure: Reagents and Cell Culture. The human recombinant mature type III collagen used for cell attachment assays was purchased from FibroGen. All cell culture media components were purchased from Invitrogen. The human lung fibroblast cell line MRC-5 was purchased from American Type Culture Collection (ATCC) (Manassas, Va.). The cells were cultured and passaged in Dulbecco's modified Eagle's medium (DMEM) supplemented with 10% fetal bovine serum, 100 unit/ml penicillin and 100 μg/ml streptomycin. The cells were grown to subconfluence and passaged every 2-3 days.
Cell attachment assay. MRC-5 cells were starved overnight in serum deficient DMEM containing penicillin and streptomycin, then detached using 1 mM EDTA and 0.025% trypsin at 37° C. for 2 minutes. The cells were washed with PBS and resuspended in DMEM containing 0.2% BSA supplemented with 2 mM MgCl2. 100 μl of the cell suspension (˜1.5×10^5 cells/ml) were added to the microtiter wells coated with different concentrations of collagen or collagen peptides and blocked with PBS containing 0.5% (w/v) BSA. After incubation at room temperature for 45 min, the wells were washed with PBS. Attached cells were fixed with 3% p-formaldehyde for 10 min at room temperature. Following washing with cold Tris-buffered saline (TBS), pH 7.4, cells were fixed again in 20% methanol for 10 min and stained with 0.5% crystal violet for 5 min. The wells were thoroughly washed with distilled water and air-dried. Sodium citrate (0.1 M) was then added to the wells to dissolve the dye and the absorbance at 590 nm was measured. The maximum cell attachment on type III collagen was set to 100% and, residual attachment on BSA was set to 0%.
Adhesion of MRC-5 cells to peptide#1 (SEQ ID NO: 15) substrates. […] Wells in 96-well plates were coated with increasing concentrations of type III collagen, peptide #1 (SEQ ID NO: 15) or #2 (SEQ ID NO: 16) and 1.5×10^4 MRC-5 cells were added to each well. The plate was incubated for 45 min at room temperature and adhering cells were quantified as described herein.

[3] = biological target: T1, α2I binding to type III collagen (Homo sapiens, UniProt P17301); assay: Competition ELISA, inhibition of I domain binding to type III collagen; conditions: 100 μM peptide, 5 μM α2I, type III procollagen-coated wells
T1 construct: recombinant I domains from integrins α1 and α2 (α1I and α2I); made in house

[4] = biological target: T2, α1I binding to type III collagen (Homo sapiens, UniProt P56199); assay: as above; conditions: 100 μM peptide, 0.5 μM α1I, type III procollagen-coated wells
T2 construct: recombinant I domains from integrins α1 and α2 (α1I and α2I); made in house

[5] = biological target: T3, α2I (recombinant I domain of integrin α2) (Homo sapiens, UniProt P17301); assay: SPR (BIAcore 3000), I domain binding to immobilized fibrillar collagens; conditions: equilibrium analysis, 1 mM MgCl2
T3 construct: recombinant I domains from integrins α1 and α2 (α1I and α2I); made in house
Procedure: Surface Plasmon Resonance (SPR) measurements. For the analyses of interactions between recombinant I domains and fibrillar collagens, SPR measurements were carried out at ambient temperature using the BIAcore 3000 system (BIAcore, Uppsala, Sweden) as described previously (21) with following modifications. First, purified recombinant human procollagens I and III (described above), or bovine mature type II collagen (Sigma) were immobilized on the flow cells of a CM5 chip resulting in 200-700 response units of immobilized protein.
SPR sensorgrams from different injections were overlaid using the BIAevaluation software (BIAcore AB). Data from the steady state portion of the sensorgrams were used to determine the binding affinities. Based on the correlation between the SPR response and change in protein mass on the surfaces of flow cells, values for the binding ratio, νbound, and the concentration of free protein, [P]free, were calculated using the equations described previously (21). Scatchard analysis was performed by plotting νbound/[P]free against νbound in which the negative reciprocal of the slope is the dissociation constant, KD. Nonlinear regression was also performed by plotting νbound against [P]free and fitted with the one-binding class or the two-binding class models using the GraphPad Prism™ software (GraphPad Software Inc., San Diego, Calif.). Results from the two models were compared with respect to the value of R^2 and the degree of freedom of the curve fit. The model that gave KD values outside the experimental data range was excluded. Experimental results were reproducible with at least three independent protein preparations.
The interactions between the two I domains and fibrillar collagens (types I, II and III) were examined by SPR. Solutions of 1 μM α1I or α2I were passed over chips containing immobilized collagen I, II, or III in the presence of 1 mM MgCl2.
The BIAcore 3000 system used in the present invention had higher sensitivity of detection which enabled examination of the interactions between α2I and collagens at a sub-micromolar concentration range. […] The binding affinities of α2I to the three types of collagen appeared to be slightly more variable.

[6] = first line per collagen in Table 2 (unit from b77), read-out: KD, high affinity binding class
[7] = second line per collagen in Table 2 (unit from b77), read-out: KD, low affinity binding class

T3 sequence (P17301 188-365 limits assumed): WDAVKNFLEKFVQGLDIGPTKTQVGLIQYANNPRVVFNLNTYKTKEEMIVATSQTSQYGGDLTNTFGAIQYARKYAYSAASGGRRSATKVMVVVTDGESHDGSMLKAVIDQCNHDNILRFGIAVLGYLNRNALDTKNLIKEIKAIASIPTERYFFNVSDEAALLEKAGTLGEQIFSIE
T1 sequence (P17301 188-365 limits assumed): as above
T2 sequence (P56199 161-360 limits assumed): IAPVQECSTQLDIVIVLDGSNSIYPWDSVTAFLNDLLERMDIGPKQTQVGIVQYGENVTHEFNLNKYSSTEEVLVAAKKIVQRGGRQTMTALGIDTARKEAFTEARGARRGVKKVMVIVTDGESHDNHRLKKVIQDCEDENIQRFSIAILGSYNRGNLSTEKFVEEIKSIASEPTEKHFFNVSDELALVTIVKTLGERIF

| Molecule | adhesion of MRC-5 cells to coated substrate [2] | inhibition of binding of α2I to type III collagen [3] | inhibition of binding of α1I to type III collagen [4] | Kd [5, 6] [µM] | Kd [5, 7] [µM] | also measured |
| --- | --- | --- | --- | --- | --- | --- |
| N=C(N)NCCC[C@H](NC(=O)[C@H](CCC(=O)O)NC(=O)CNC(=O)[C@@H]1C[C@@H](O)CN1C(=O)[C@H](CCCNC(=N)N)NC(=O)CNC(=O)[C@@H]1C[C@@H](O)CN1C(=O)[C@@H]1CCCN1C(=O)CNC(=O)[C@@H]1C[C@@H](O)CN1C(=O)[C@@H]1CCCN1C(=O)CNC(=O)[C@@H]1C[C@@H](O)CN1C(=O)[C@@H]1CCCN1C(=O)CN)C(=O)NCC(=O)N1CCC[C@H]1C(=O)N1C[C@H](O)C[C@H]1C(=O)NCC(=O)N1CCC[C@H]1C(=O)N1C[C@H](O)C[C@H]1C(=O)NCC(=O)N1CCC[C@H]1C(=O)N1C[C@H](O)C[C@H]1C(N)=O [GROGER] (H-GP[Hyp]GP[Hyp]GP[Hyp]GR[Hyp]GERGP[Hyp]GP[Hyp]GP[Hyp]-NH2; N-terminus and C-terminus assumed) |  |  |  |  |  | melting temperature (Tm) of triple helix [1]: 41 °C |
| (GPO)3GAOGERGROGLO(GPO)3 (GP[Hyp]GP[Hyp]GP[Hyp]GA[Hyp]GERGR[Hyp]GL[Hyp]GP[Hyp]GP[Hyp]GP[Hyp]) [peptide #2] | could not | 60% | 40% |  |  |  |
| (GPO)11 (GPRGRT) [peptide #3, control peptide, reference compound] |  | did not show any inhibitory activity | did not show any inhibitory activity |  |  |  |
| Collagen I: purified recombinant human procollagen I immobilized for SPR; type I collagen of the cited earlier study |  |  |  | 0.26 ± 0.08 | 3.99 ± 0.82 | Kd ([5]; first line per collagen in Table 2 (unit from b77), listed as type I collagen, read-out: KD, high affinity binding class): ~0.3 µM; Kd ([5]; second line per collagen in Table 2 (unit from b77), listed as type I collagen, read-out: KD, low affinity binding class): ~4 µM |
| Collagen II: bovine mature type II collagen (Sigma) |  |  |  | 1.75 | 16.5 ± 3.89 | Kd ([5]; second line per collagen in Table 2 (unit from b77), listed as type II collagen, read-out: KD, low affinity binding class): ~16.5 µM |
| B1 | could support adhesion of MRC-5 cells in a dose-dependent manner |  |  | 0.33 ± 0.03 | 14.5 ± 3.41 | Kd ([5]; first line per collagen in Table 2 (unit from b77), listed as type III collagen, read-out: KD, high affinity binding class): ~0.3 µM; Kd ([5]; second line per collagen in Table 2 (unit from b77), listed as type III collagen, read-out: KD, low affinity binding class): ~14.5 µM |
